In patent US20210223235A1:

Target: QTARK^MeSTGC (SEQ ID NO: 4), methylated H3K9 peptide ligand immobilized on the monolayer
Experiment: cell-based or functional assay

## Cbx1 fusion protein (Cbx1 chromodomain fused to KDAC8 through a short linker) (from UniProt P83916 20-73; Q9BY41 1-377)
  rate acceleration for the deacetylation reaction (SAMDI mass spectrometry): 20 fold
